The supplement of paper PMC7125110
± gives the standard error. Variants at the floor of the assay were thinned out.

B1: glmS ribozyme (parent)
chain: AUAAAAGCGCCAGAACUACAGAAAUGUAGUUGACGAGGAGGAGGUUUAUCGAAUUUUCGGCGGAUGCCUCCAAA

Variants of: B1
Experiment: self-cleavage kobs at 2500 uM GlcN6P; higher = faster cleavage; RNA array
Settings: with glucosamine-6-phosphate
Summary of the method: (§1)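 Barcoded ribozyme variants, transcribed in situ by E. coli RNA polymerase on sequenced MiSeq chips, were followed via a hybridised Cy3 probe at 37 °C. Glucosamine-6-phosphate ranged from 40 μM to 10 mM in HEPES/KCl/Mg(OAc)2 buffer. kobs came from decay fits to per-tile medians, and kcat and KM from weighted Michaelis–Menten fits.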

Variant	self-cleavage kobs at 2500 uM GlcN6P
AUAAAAGCGCCAGAACUACAGAAAUGUAGGUGACGAGGAGGAUGUUAAUCGAAUUAUCGGCGGAUGCCUCCAAA [U30G G43U U47A U56A]	< 1e-05 s⁻¹
AUAAAAGCGCCAGAACUACAGAAAUGUAGUAGACGAGGAGGAGGUUUAGCGAAUUUUCGGCGGAUGCCUCCAAA [U31A U49G]	0.000183 ± 3.1e-05 s⁻¹
AUAAAAGCGCCAGAACUACAGAAAUGUAGUAGAGGAGGAGGAGGUUUGUCGAAUUUUCGGCGGAUGCCUCCAAA [U31A C34G A48G]	< 1e-05 s⁻¹
AUAAAAGCGCCAGAACUACAGAAAUGUAGCUGACAAGGAGGAGGUUUAUCGAAUUUUCGGCGGAUGGCUCCAAA [U30C G35A C67G]	< 1e-05 s⁻¹
AUAAAAGCGCCAGAACUACAGAAAUGUAGUCGACGAGGAGGAGGUUUAUCGAAUUAUCGGCGGAUGUCUCCAAA [U31C U56A C67U]	0.000427 ± 0.00012 s⁻¹
AUAAAAGCGCCAGAACUACAGAAAUGUAGUGGUCGAGGAGGAGGUUUAUCGAAUUUUCGGCGGAUGCGUCCAAA [U31G A33U C68G]	< 1e-05 s⁻¹
AUAAAAGCGCCAGAACUACAGAAAUGUAGUUAACGAGGAGGAGGUUUAUGGAAUUUUCGGCGGAUGCCUCUAAA [G32A C50G C71U]	0.000168 ± 7.3e-05 s⁻¹
AUAAAAGCGCCAGAACUACAGAAAUGUAGGUGCCGAGGAGGAGGUUUAUCGAAUUUUCGGCGGAUUCCUCCAAA [U30G A33C G66U]	< 1e-05 s⁻¹
AUAAAAGCGCCAGAACUACAGAAAUGUAGCUGACGAGGAGGAGGUUUAUGGAAUUUUCGGCGCAUGCCUCCAAA [U30C C50G G63C]	0.00014 ± 5.2e-05 s⁻¹
AUAAAAGCGCCAGAACUACAGAAAUGUAGUGGACGAGGAGGAGGUUUAUCGAAUUUUCGGCGGAUGCGUGCAAA [U31G C68G C70G]	< 1e-05 s⁻¹
AUAAAAGCGCCAGAACUACAGAAAUGUAGUCGACAAGGAGGAGGUUUAUCGAAUUUUCGGCGGAUUCCUCAAAA [U31C G35A G66U C71A]	< 1e-05 s⁻¹
AUAAAAGCGCCAGAACUACAGAAAUGUAGUCCACGAUGAGCAGGUAUAUCGAUUAUUCGGCGGCUGCCUCCAAA [U31C G32C G37U G41C U46A A53U U55A A64C]	< 1e-05 s⁻¹
AUAAAAGCGCCAGAACUACAGAAAUGUAGCUGACGAGUAGGCGGUUUAUCGAAUUUUCGGCGGAUGCCUCCAAA [U30C G38U A42C]	< 1e-05 s⁻¹
AUAAAAGCGCCAGAACUACAGAAAUGUAGUAGACGGGGAGGAGGUUUAUCGAAUUUUCGGCGAUUGCCUCUAAA [U31A A36G G63A A64U C71U]	< 1e-05 s⁻¹
AUAAAAGCGCCAGAACUACAGAAAUGUAGUUAACGAGGAGGAGGUUUAUCGAAUUUUUGGCGGAUGCGUCCAAA [G32A C58U C68G]	0.000103 ± 3.5e-05 s⁻¹
AUAAAAGCGCCAGAACUACAGAAAUGUAGUCGACGAGUAGGAGGUUUAUCGAUUUUUCGGCGGAUGCCUCCAAA [U31C G38U A53U]	< 1e-05 s⁻¹

Variant	self-cleavage kobs at 2500 uM GlcN6P
AUAAAAGCGCCAGAACUACAGAAAUGUAGUAUACGAGGAGGAGGGUUAUCGAAUUUUCGGCGGAUGCCUCCAAA [U31A G32U U45G]	0.000148 ± 5.6e-05 s⁻¹
AUAAAAGCGCCAGAACUACAGAAAUGUAGGUGAAGAGGAGGAGGUUUAUCGAAUUUUCGUCGGAUGCCUCCAAA [U30G C34A G60U]	< 1e-05 s⁻¹
AUAAAAGCGCCAGAACUACAGAAAUGUAGUCGAAGACGAGGAGGUUUAUCGAAUUUUCGGCGGAUGCCUCCAAA [U31C C34A G37C]	< 1e-05 s⁻¹
AUAAAAGCGCCAGAACUACAGAAAUGUAGCUGACGAGGAGGAAGUGUAUCGAAUUUUCGGCGGAUGUCUCCAAA [U30C G43A U46G C67U]	< 1e-05 s⁻¹
AUAAAAGCGCCAGAACUACAGAAAUGUAGUCGACGAGGAGGAGGUUUGUCGAAUUUUCGGCGCAUGUCUCCAAA [U31C A48G G63C C67U]	< 1e-05 s⁻¹
AUAAAAGCGCCAGAACUACAGAAAUGUAGUUAACGAGGAGUAGGUUUAUUGAAUUAUCGGCUGAUGCCUCCAAA [G32A G41U C50U U56A G62U]	< 1e-05 s⁻¹
AUAAAAGCGCCAGAACUACAGAAAUGUAGGUGACGAGGAGGAGAUUUAUCGAAUUUUCGGCGGAUGCCUCCAAA [U30G G44A]	6.16e-05 ± 1.7e-05 s⁻¹
AUAAAAGCGCCAGAACUACAGAAAUGUAGUCGACGAGAAAGAGGUUUAUCGAAUUUUCGGCGGAUGCCUCCAAA [U31C G38A G40A]	< 1e-05 s⁻¹
AUAAAAGCGCCAGAACUACAGAAAUGUAGUCGACGAGGAGGAGGUUUAUCGAAUUUUAGGUGGUUGCCUCCAAA [U31C C58A C61U A64U]	< 1e-05 s⁻¹
AUAAAAGCGCCAGAACUACAGAAAUGUAGGUGGCGAGGAGGGUGUUUAUCGAAUUUUCGGCGGAUGCCUACAAA [U30G A33G A42G G43U C70A]	< 1e-05 s⁻¹
AUAAAAGCGCCAGAACUACAGAAAUGUAGUCGACGAGGAGGAGGUUUAUCGAAUUUUCAGCGGAUUCCUCCAAA [U31C G59A G66U]	< 1e-05 s⁻¹
AUAAAAGCGCCAGAACUACAGAAAUGUAGGUGACGAGGAGGAGGUCUAUCGAAUUUUCGGCGGAUGCUUCCAAA [U30G U46C C68U]	8.16e-05 ± 1.7e-05 s⁻¹
AUAAAAGCGCCAGAACUACAGAAAUGUAGGUGACGAGGAGGAGGUUUAUCGAAUUUACGGCGGAUGCCUCCAAA [U30G U57A]	4.22e-05 ± 1.5e-05 s⁻¹
AUAAAAGCGCCAGAACUACAGAAAUGUAGCUGACGAGGAGGAGAUUUAUCGAAUUUUCGGCGGAUUCCUCCAAA [U30C G44A G66U]	< 1e-05 s⁻¹
AUAAAAGCGCCAGAACUACAGAAAUGUAGUCGACGAGUAGGAGGUUUAUCGAAUUUUCGGCGGAUUCCUCCAAA [U31C G38U G66U]	< 1e-05 s⁻¹

Variants of: B1
Experiment: self-cleavage kobs at 10000 uM GlcN6P; higher = faster cleavage; RNA array
Settings: with glucosamine-6-phosphate
Summary of the method: as §1

Variant	self-cleavage kobs at 10000 uM GlcN6P
AUAAAAGCGCCAGAACUACAGAAAUGUAGUAGACGAGGAGGAGGUUUAGCGAAUUUUCGGCGGAUGCCUCCAAA [U31A U49G]	0.000277 ± 4.5e-05 s⁻¹
AUAAAAGCGCCAGAACUACAGAAAUGUAGUCGACGAGGAGGAGGUUUAUCGAAUUAUCGGCGGAUGUCUCCAAA [U31C U56A C67U]	0.000671 ± 0.00015 s⁻¹
AUAAAAGCGCCAGAACUACAGAAAUGUAGUUAACGAGGAGUAGGUUUAUUGAAUUAUCGGCUGAUGCCUCCAAA [G32A G41U C50U U56A G62U]	< 1e-05 s⁻¹
AUAAAAGCGCCAGAACUACAGAAAUGUAGGUGACGAGGAGGAGAUUUAUCGAAUUUUCGGCGGAUGCCUCCAAA [U30G G44A]	6.05e-05 ± 2e-05 s⁻¹
AUAAAAGCGCCAGAACUACAGAAAUGUAGGUGACGAGGAGGAGGUCUAUCGAAUUUUCGGCGGAUGCUUCCAAA [U30G U46C C68U]	0.000214 ± 5.2e-05 s⁻¹
AUAAAAGCGCCAGAACUACAGAAAUGUAGGUGACGAGGAGGAGGUUUAUCGAAUUUACGGCGGAUGCCUCCAAA [U30G U57A]	8.3e-05 ± 1.8e-05 s⁻¹
